# Test results reported in article PMC9170038, “Crowdsourced RNA design discovers diverse, reversible, efficient, self-contained molecular switches”.
# B1: Eterna 5998949 (Sensor, turn-off variant 1) (ssRNA)
# RNA: UUUCCGGCGCGGGUUUUUUACAUGAGGAUCACCCAUGUCCUCUGCUUGUCUUGUCUUGGGCUUUUUUUGGGUUCGGG
# B2: Eterna 5988416 (Sensor, turn-off variant 1) (ssRNA)
# RNA: UCACAAGCUGUGGGUGGUGACAUGAGGAUCACCCAUGUUUUGCUCGUCUUGUGCCGGGCCCGGCGCCCGGGCCCGGC
# B3: Eterna 7705565 (Exclusion - FMN A) (ssRNA)
# RNA: AGACUACCACACUGUCAAUAGACAGUGAACUAGGAUAUGCUGAUAAGCAGAAGGAGUGAUGUUCCUAAAGGUAGUCAAAUAUAAU
# B4: Eterna 6417730 (Small Loop Same State NG 3) (ssRNA)
# RNA: ACAUGAGGAUCUCCCAUGUAAAAUUAGGAUAUAUAACUGCACAUGAGGAUCACCCAUGUUUAACCGUAGAAGGGAUAAAUAAUU
# B5: Eterna 7709687 (Same State - Tryptophan B) (ssRNA)
# RNA: UAUUAAGUGACGGCCGCCACUAUGGUGAUUUAUUUGUUUGAGUGAUGUUUUGAUGUUUGAUUUUGUAGGACCGGGUUAUGUGUUA
# B6: Eterna 1521 (Same State - FMN A) (ssRNA)
# RNA: CGUAAGGAUUGACGACUGCAGAGCAAAAUAAAGGAUAUCGCAGCGUCGAGAAGGUUAUCGUGCGCCAGUGAUGUUGGCGGUAGUC
# B7: Eterna 7695377 (Same State - Theophylline A) (ssRNA)
# RNA: UCUUAACUAAAAUAAUGGGAUACCAGUGAUACCAGCCAUAUGCAGGGCCCUUGGCAGCACCCUUGGCAGCCUCGAGUGAUGUUCG
# B8: Eterna 7720201 (Exclusion - Theophylline B) (ssRNA)
# RNA: CCUAUCUCAUACGAUACCAGUCUACGAUAUUUUAUCGUUGCCAACACCGAGUGAUGUUCGGACCCUUGGCAGCGUAUGGGAUAGG
# B9: Eterna 1174 (Exclusion - Theophylline B) (ssRNA)
# RNA: GCUGUCCAGUUCGAUACCAGAGUUAUCGCACUGUAGUGAUAAAGUGAUGUUUUAUCAGUCCUCCCUUGGCAGCGAUGCCCGGCUG
# B10: Eterna 1188 (Exclusion - Theophylline B) (ssRNA)
# RNA: AGCUGCCGAAUAGAUACCAGUGUCUUUAGUGAUGUUUCAGAGCUGGCACGAUCAGAAGGUCACCCUUGGCAGCUAGUGCCAGCGU
# B11: Eterna 1257 (Exclusion - Tryptophan B) (ssRNA)
# RNA: CUGUUUUAGUCGGCCGCCACUGCAAGUGAUGUUUGGAGUAUUAUGCCGUUUCUGUCCAUUGAACCCAGGACCGGGACCGGAUCGU
# B12: Eterna 7634493 (Same State - Theophylline A) (ssRNA)
# RNA: ACAUGAGGAUCACCCAUGUCUGCCACUGAUACCAGCGGAAGAAAACGCCCUUGGCAGCAGAACAUGAGGAUCACCCAUGUAGGCU
# B13: Eterna 6429692 (Inverted Same State NG 1) (ssRNA)
# RNA: AUCAUGCUCAAGAAGGACAUGAGGAUCACCCAUGUAGGAUAUUGGGCGGUCACUUCUAGCUUGUGUGUAUCUGAAUACUCCAGG
# B14: Eterna 6429508 (Inverted Exclusion NG 3) (ssRNA)
# RNA: GGGUGCCCUGCAGAAGCGACAUGAGGAUCACCCAUGUAACGUAGAAGGGCCCGGAACUAAGGUGGGCAGGAUAUACUGUUAGGU
# B15: Eterna 10033 (Sensor v3, turn-off variant 2) (ssRNA)
# RNA: ACUAGCGAAAUGCUCGUCUUAUUUUUGUAGAGGUUCUAAACAUGAGGAUCACCCAUGUAGUGGUUUUUGUGGAGGUA
# Target: T1, MS2 coat protein, dlFG mutant (Escherichia phage MS2, UniProt P03612, del68-81insG)
# Assay: 4 mM Mg2+; no ligand; RNA-MaP array; 100 mM Tris-HCl pH 7.5, 80 mM KCl, 4 mM MgCl2, 0.1 mg/mL BSA, 1 mM DTT, 0.01 mg/mL yeast tRNA, 0.01% Tween-20; protein 1.5 nM to 3 uM; 37 C (Table S3)
# Settings: chain copies: 2; label: tethered by stalled RNA polymerase
row,Binder,Kd [nM]
1,B1,798
2,B2,1080
3,B3,> 3000
4,B4,1100
5,B5,> 3000
6,B6,> 3000
7,B7,> 3000
8,B8,> 3000
9,UUUCAGGGCAGUGAUGUUGCCCUCUUU (ssRNA) [Eterna 9 (K4-7bp_control)],> 3000
10,B9,> 3000
11,B10,> 3000
12,B11,> 3000

# Target: T1, MS2 coat protein, dlFG mutant
# Assay: 4 mM Mg2+; theophylline 2 mM; RNA-MaP array; 100 mM Tris-HCl pH 7.5, 80 mM KCl, 4 mM MgCl2, 0.1 mg/mL BSA, 1 mM DTT, 0.01 mg/mL yeast tRNA, 0.01% Tween-20; protein 1.5 nM to 3 uM; 37 C (Table S3)
# Settings: chain copies: 2; label: tethered by stalled RNA polymerase
row,Binder,Kd [nM]
1,B12,188

# Target: T1, MS2 coat protein, dlFG mutant
# Assay: 4 mM Mg2+; FMN 200 uM; RNA-MaP array; 100 mM Tris-HCl pH 7.5, 80 mM KCl, 4 mM MgCl2, 0.1 mg/mL BSA, 1 mM DTT, 0.01 mg/mL yeast tRNA, 0.01% Tween-20; protein 1.5 nM to 3 uM; 37 C (Table S3)
# Settings: chain copies: 2; label: tethered by stalled RNA polymerase
row,Binder,Kd [nM]
1,B13,7.54
2,B14,7.24

# Target: T1, MS2 coat protein, dlFG mutant
# Assay: 4 mM Mg2+; miR-208a RNA 100 nM (AU…UUGU); RNA-MaP array; 100 mM Tris-HCl pH 7.5, 80 mM KCl, 4 mM MgCl2, 0.1 mg/mL BSA, 1 mM DTT, 0.01 mg/mL yeast tRNA, 0.01% Tween-20; protein 1.5 nM to 3 uM; 37 C (Table S3)
# Settings: chain copies: 2; label: tethered by stalled RNA polymerase
row,Binder,Kd [nM]
1,B15,265
